T1: human TIM-3 protein with hFc tag (hTIM-3-hFc protein) (human, UniProt Q8TDQ0 22-200)
T1 construct: also called immunogen 1; human TIM-3 extracellular domain protein; not shown: human IgG Fc fragment (hFc) of the pCpC vector
T1 sequence: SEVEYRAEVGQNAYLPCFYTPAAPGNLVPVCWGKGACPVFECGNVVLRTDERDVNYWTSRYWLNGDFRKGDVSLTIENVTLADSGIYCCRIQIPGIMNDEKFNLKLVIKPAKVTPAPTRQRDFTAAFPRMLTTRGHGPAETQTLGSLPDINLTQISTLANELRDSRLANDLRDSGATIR

T2: monkey TIM-3 protein with hFc tag (cTIM-3-hFc protein) (monkey; human)
T2 construct: Made in HEK293 cells; also called monkey TIM-3 extracellular domain protein; not shown: human IgG Fc fragment (hFc) of the pCpC vector
T2 chain: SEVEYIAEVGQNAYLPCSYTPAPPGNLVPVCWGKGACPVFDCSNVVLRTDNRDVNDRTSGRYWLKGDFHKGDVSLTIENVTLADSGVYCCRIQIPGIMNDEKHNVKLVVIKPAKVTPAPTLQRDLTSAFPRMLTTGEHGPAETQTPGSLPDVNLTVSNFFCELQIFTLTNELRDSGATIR

T3: murine TIM-3 protein with hFc tag (mTIM-3-hFc protein) (mouse; human, UniProt Q8VIM0 29-191)
T3 construct: Made in HEK293 cells; also called mouse TIM-3 extracellular domain protein; not shown: human IgG Fc fragment (hFc) of the pCpC vector
T3 chain: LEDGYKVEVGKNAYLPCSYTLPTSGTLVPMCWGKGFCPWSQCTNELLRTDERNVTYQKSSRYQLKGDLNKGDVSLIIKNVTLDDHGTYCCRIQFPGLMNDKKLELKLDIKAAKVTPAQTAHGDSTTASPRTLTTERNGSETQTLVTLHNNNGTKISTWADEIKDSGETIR

T4: human TIM-3 extracellular domain protein with hFc tag (hTIM-3-hFc) (human, UniProt Q8TDQ0 22-200)
T4 construct: not shown: human IgG Fc fragment (hFc) of the pCpC vector
T4 sequence: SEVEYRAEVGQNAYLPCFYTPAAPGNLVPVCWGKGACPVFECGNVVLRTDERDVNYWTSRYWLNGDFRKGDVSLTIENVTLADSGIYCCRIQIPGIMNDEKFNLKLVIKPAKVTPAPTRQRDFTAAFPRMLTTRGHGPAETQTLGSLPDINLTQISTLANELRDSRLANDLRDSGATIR

T5: human TIM-3 on CHOK1 stable cell line (CHOK1-hTIM-3) (human, UniProt Q8TDQ0 22-301)
T5 sequence: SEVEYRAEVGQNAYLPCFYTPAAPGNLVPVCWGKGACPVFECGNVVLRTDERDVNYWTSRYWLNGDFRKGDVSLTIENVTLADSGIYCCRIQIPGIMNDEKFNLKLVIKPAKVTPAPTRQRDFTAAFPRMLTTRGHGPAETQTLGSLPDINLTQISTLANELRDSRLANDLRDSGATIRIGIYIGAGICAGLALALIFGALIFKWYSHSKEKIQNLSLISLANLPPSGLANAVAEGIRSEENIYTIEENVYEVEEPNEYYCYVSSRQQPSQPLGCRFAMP


Assays:
[1] = target: T1, human TIM-3 protein with hFc tag …; test: ELISA, coated hTIM-3-hFc; antibody 0.0067 nM
From the text: (§1) The amino acid sequence 22-200 of the extracellular domain of the human TIM-3 protein described in the step of Example 1 (as shown in SEQ ID NO. 71 in the sequence listing) was cloned into a pCpC vector having a human IgG Fc fragment (hFc), and transfected into HEK293 cells. The cell culture medium was collected, and purified to obtain the human TIM-3 protein with hFc tag (herein referred to as hTIM-3-hFc protein). The amino acid sequence 22-201 of the extracellular domain of the monkey TIM-3 protein (as shown in SEQ ID NO. 72 in the sequence listing) was cloned into a pCpC vector having a human IgG Fc fragment (hFc), and transfected into HEK293 cells. The cell culture medium was collected, and purified to obtain the monkey TIM-3 protein with hFc tag (herein referred to as cTIM-3-hFc protein). […] The cell culture medium was collected, and purified to obtain the murine TIM-3 protein with hFc tag (herein referred to as mTIM-3-hFc protein). Purified human, monkey, and mouse TIM-3 extracellular domain proteins (hTIM-3-hFc, cTIM-3-hFc, and mTIM-3-hFc) were diluted with PBS to a final concentration of 1.0 μg/ml and then added to a 96-well ELISA plate with 100 μl per well. The plate was sealed with plastic film and incubated overnight at 4° C. The plate was washed 4 times with the plate washing solution (PBS+0.01% Tween20) on the next day, and added with the blocking solution (PBS+0.01% Tween20+1% BSA) and sealed at room temperature for 1-2 hours. The blocking solution was poured out. 50-100 μl of the antibody sample to be tested was added to each well. The plate was incubated at 37° C. for 1-2 hours, and washed 2-3 times with plate washing solution (PBS+0. 01% Tween20). HRP (horseradish peroxidase) labeled secondary antibody was added. The plate was incubated at 37° C. for 1-2 hours, and washed 2-3 times with plate washing solution (PBS+0. 01% Tween20). […] of TMB substrate was added to each well. After incubated at room temperature for 15-30 minutes, the plate was added with […] stop solution (1.0N HCl) to each well. An ELISA plate reader (TiterMax 384plus, Molecular Device) was used to read the A450 nm value.

[2] = target: T2, monkey TIM-3 protein with hFc tag …; test: ELISA, coated cTIM-3-hFc; antibody 0.6667 nM
From the text: as §1

[3] = target: T1, human TIM-3 protein with hFc tag …; test: ELISA, coated hTIM-3-hFc; antibody 66.667 nM
From the text: as §1

[4] = target: T1, human TIM-3 protein with hFc tag …; test: ELISA, coated hTIM-3-hFc; antibody 0.6667 nM
From the text: as §1

[5] = target: T3, murine TIM-3 protein with hFc tag …; test: ELISA, coated mTIM-3-hFc; antibody 6.6667 nM
From the text: as §1

[6] = target: T4, human TIM-3 extracellular domain …; test: ELISA, coated human TIM-3 ECD protein, 0 nM antibody
[7] = target: T5, human TIM-3 on CHOK1 stable cell line …; test: FACS, CHOK1-hTIM-3 cells, 0.013 nM antibody
[8] = target: T5, human TIM-3 on CHOK1 stable cell line …; test: FACS, CHOK1-hTIM-3 cells, 0 nM antibody
[9] = target: T5, human TIM-3 on CHOK1 stable cell line …; test: FACS, CHOK1-hTIM-3 cells, 40 nM antibody

Row | Binder | OD450 [1] | OD450 [2] | OD450 [3] | OD450 [4] | OD450 [5] | OD450 [6] | Mean fluorescence intensity [7] | Mean fluorescence intensity [8] | Mean fluorescence intensity [9]
1 | 34B6D8 (TIM-3 antibody purified from hybridoma, chimeric antibody of Example 2) (antibody, V domains shown, From hybridoma of Harbour H2L2 transgenic mice: human variable regions, rat constant regions) VH: EVQLVESGGGLVQPGGSLRLSCAASGFTFSTYWMTWVRQAPGKRLEWVANIKQGGGDKYYVDSVKGRFTISTDNAKNSLYLQMNSLRAEDTAVYYCARGSNWFDPWGQGTLVTVSS VL: EIVMTQSPATLSMSPGERATLSCRASQSVYDNLAWYQQKPGQAPRLLIYGASTRATGIPARFSGSGSGTEFTLTISSLQSEDFALYYCQQYTHWPITFGQGTRLEIK | 0.33 | 3.44 | 3.42 | 3.41 | 0.74 | – | – | – | –
2 | 7A4F10 fully human TIM-3 antibody (human IgG4, kappa) (antibody, V domains shown) VH: EVQLLESGGGLVQPGGSLRLSCAASGFTFRTHLISWVRQAPGKGLEWVAAITGSGGSTYYADSVKGRFIISRDNSKNTLFLQMNSLRAEDTAVYYCAKDGGSGSYDDFWGQGTLVTVSS VL: ETVLTQSPVTLSLSPGERATLSCRASQSVGSYLAWYQQKPGQAPRLLIYDASNRATGIPARFSGSGSGTDFTLTISSLEPEDFAVYYCQQRSNWPPTFGQGTKVEIK | – | – | – | – | – | 0.08 | 9.7 | 2.8 | 313
3 | 7A4F10 (TIM-3 antibody purified from hybridoma, chimeric antibody of Example 2) (antibody, V domains shown, From hybridoma of Harbour H2L2 transgenic mice: human variable regions, rat constant regions) VH: EVQLLESGGGLVQPGGSLRLSCAASGFTFRTHLISWVRQAPGKGLEWVAAITGSGGSTYYADSVKGRFIISRDNSKNTLFLQMNSLRAEDTAVYYCAKDGGSGSYDDFWGQGTLVTVSS VL: ETVLTQSPVTLSLSPGERATLSCRASQSVGSYLAWYQQKPGQAPRLLIYDASNRATGIPARFSGSGSGTDFTLTISSLEPEDFAVYYCQQRSNWPPTFGQGTKVEIK | 0.13 | 1.35 | 3.08 | 0.86 | 0.67 | – | – | – | –
4 | 39E5H1 (TIM-3 antibody purified from hybridoma, chimeric antibody of Example 2) (antibody, V domains shown, From hybridoma of Harbour H2L2 transgenic mice: human variable regions, rat constant regions) VH: EVQLVESGGGLVQPGGSLRLSCAASGFTFSSYWMSWVRQAPGKGLEWVANIKRGGSERYYVDSVKGRFTISGDNAKNSVYLQMNSLRAEDTAVYYCARGSNWFDPWGQGTLVTVSS VL: ETVMTQSPAILSVSPGERATLSCRASQSVYSNLAWYQQKLGQAPRLLIYDASTRATGIPARFSGSGSGTEFTLTISSLQSEDFAVYYCQQYNNWPITFGQGTRLEIK | 0.42 | 3.41 | 3.39 | 3.41 | 0.68 | – | – | – | –
5 | 18D2H2 (TIM-3 antibody purified from hybridoma, chimeric antibody of Example 2) (antibody, V domains shown, From hybridoma of Harbour H2L2 transgenic mice: human variable regions, rat constant regions) VH: EVQLVESGGDLVQPGGSLRLSCAASGFTFSTYWMTWVRQAPGRGLEWVANIKQDGSAKYYVDSVKGRFTLSRDDAKNSLYLQMNSLRAEDTAVYYCARGSNWFDYWGQGTLVTVSS VL: ETVMTQSPATLSVSPGERATLSCRANQNVYSNLAWYQQKPGQAPRLLIYDASTRATGFPARFSGSGSGTEFTLTISSLQSEDFAVYYCQQYNNWPLTFGGGTKVEIK | 0.16 | 1.89 | 2.93 | 1.33 | 0.69 | – | – | – | –
6 | 57F4E5 (TIM-3 antibody purified from hybridoma, chimeric antibody of Example 2) (antibody, V domains shown, From hybridoma of Harbour H2L2 transgenic mice: human variable regions, rat constant regions) VH: EVQLVESGGGLVQPGGSLRLSCAASGFTFSSYWMSWVRQAPGKGLEWVANIKQDGSEKYYVDSVKGRFTISRDSAKNSLYLQMNSLRAEDTAMYFCARDSNFFDYWGQGTLVTVSS VL: ETVMTQSPATLSVSPGERATLSCRASQSVSSNLAWYQRKPGQAPRLLIYFSSTRATGIPARFSGSGSGTEFTLTISSLQSEDFAVYYCQQYNNWPLTFGGGTKVEIK | 0.63 | 3.45 | 3.26 | 3.31 | 0.69 | – | – | – | –

Further lines, results first:

Row | OD450 [1] | OD450 [2] | OD450 [3] | OD450 [4] | OD450 [5] | OD450 [6] | Mean fluorescence intensity [7] | Mean fluorescence intensity [8] | Mean fluorescence intensity [9] | Binder
7 | – | – | – | – | – | 0.08 | 9.6 | 2.9 | 147 | 57F4E5 fully human TIM-3 antibody (human IgG4, kappa) (antibody, V domains shown) VH: EVQLVESGGGLVQPGGSLRLSCAASGFTFSSYWMSWVRQAPGKGLEWVANIKQDGSEKYYVDSVKGRFTISRDSAKNSLYLQMNSLRAEDTAMYFCARDSNFFDYWGQGTLVTVSS VL: ETVMTQSPATLSVSPGERATLSCRASQSVSSNLAWYQRKPGQAPRLLIYFSSTRATGIPARFSGSGSGTEFTLTISSLQSEDFAVYYCQQYNNWPLTFGGGTKVEIK
8 | 0.13 | 1.22 | 3.15 | 0.69 | 0.67 | – | – | – | – | 134H3G6 (TIM-3 antibody purified from hybridoma, chimeric antibody of Example 2) (antibody, V domains shown, From hybridoma of Harbour H2L2 transgenic mice: human variable regions, rat constant regions) VH: EVQLVESGGGLVQPGGSLRLSCAASGFTFSNSWMTWVRQAPGKGLEWVANIKQAGTEKYYVDSVKGRFTISRDNAKNSLYLQMNSLRAEDTAVYYCNSGSNYFDYWGQGTLVTVSS VL: EIVMTQSPATLSVSPGERATLSCRARQNFYSNLAWYQQKPGQAPRLLIYGASTRATGIPARFSGSGSGTEFTLTISSLQSEDFAVYYCQQYNNWPLTFGGGTKVEIK
9 | – | – | – | – | – | 0.08 | 13.5 | 2.8 | 218 | 134H3G6 fully human TIM-3 antibody (human IgG4, kappa) (antibody, V domains shown) VH: EVQLVESGGGLVQPGGSLRLSCAASGFTFSNSWMTWVRQAPGKGLEWVANIKQAGTEKYYVDSVKGRFTISRDNAKNSLYLQMNSLRAEDTAVYYCNSGSNYFDYWGQGTLVTVSS VL: EIVMTQSPATLSVSPGERATLSCRARQNFYSNLAWYQQKPGQAPRLLIYGASTRATGIPARFSGSGSGTEFTLTISSLQSEDFAVYYCQQYNNWPLTFGGGTKVEIK
10 | – | – | – | – | – | 0.08 | 8.2 | 2.9 | 283 | 215A8F2 fully human TIM-3 antibody (human IgG4, kappa) (antibody, V domains shown) VH: QVQLQQWGAGLLKPSETLSLTCTVYGGSFSGYYWNWIRQPPGKGLEWLGEINHSGSTNYNPSLKRRVTISVDTSKNQFSLKLSSVTAADTAVYYCARVYYYGPFDFWGQGTLVTVSS VL: not shown
11 | 0.28 | 3.26 | 3.17 | 3.06 | 0.68 | – | – | – | – | 215A8F2 (TIM-3 antibody purified from hybridoma, chimeric antibody of Example 2) (antibody, V domains shown, From hybridoma of Harbour H2L2 transgenic mice: human variable regions, rat constant regions) VH: QVQLQQWGAGLLKPSETLSLTCTVYGGSFSGYYWNWIRQPPGKGLEWLGEINHSGSTNYNPSLKRRVTISVDTSKNQFSLKLSSVTAADTAVYYCARVYYYGPFDFWGQGTLVTVSS VL: not shown

Source: patent publication US20220033501A1 (SHANGHAI PHARMAEXPLORER, published 2022)
